# Measured values from publication PMC5870055, “Structural and Mechanistic Analysis of the Choline Sulfatase from Sinorhizobium melliloti: A Class I Sulfatase Specific for an Alkyl Sulfate Ester” (Journal of Molecular Biology, 2018).
# B1: Sinorhizobium meliloti choline sulfatase wild type (enzyme, Sinorhizobium meliloti 1021, UniProt O69787 1-512, looked up)
# chain: MTTGKPNILIIMVDQLNGKLFPDGPADFLHAPNLKALAKRSARFHNNYTSSPLCAPARASFMAGQLPSRTRVYDNAAEYQSSIPTYAHHLRRAGYYTALSGKMHFVGPDQLHGFEERLTTDIYPADFGWTPDYRKPGERIDWWYHNLGSVTGAGVAEITNQMEYDDEVAFLANQKLYQLSRENDDESRRPWCLTVSFTHPHDPYVARRKFWDLYEDCEHLTPEVGAIPLDEQDPHSQRIMLSCDYQNFDVTEENVRRSRRAYFANISYLDEKVGELIDTLTRTRMLDDTLILFCSDHGDMLGERGLWFKMNFFEGSARVPLMIAGPGIAPGLHLTPTSNLDVTPTLADLAGISLEEVRPWTDGVSLVPMVNGVERTEPVLMEYAAEASYAPLVAIREGKWKYVYCALDPEQLFDLEADPLELTNLAENPRGPVDQATLTAFRDMRAAHWDMEAFDAAVRESQARRWVVYEALRNGAYYPWDHQPLQKASERYMRNHMNLDTLEESKRYPRGE
# modifications: Cys54 partially converted into formylglycine (fGly); modelled as cysteine and formyl glycine at 50% occupancy each
# notes: Choline sulfatase (BetC) of S. meliloti 1021; the whole gene (positions 1491-3029 of GenBank U39940) amplified from genomic DNA and cloned into pASK-IBA5plus; the C-terminal region is printed as residues 449-512; Protomer Mw ~61 kDa; also called SmCS; SmCS WT; source: E. coli BL21(DE3) expressing MtbFGE, purified (Q-Sepharose, Strep-Tactin, Superdex 200)
# B2: SmCS Δ23 (truncated mutant lacking 23 C-terminal amino acids) (domain or fragment, Sinorhizobium meliloti 1021, UniProt O69787 1-489, looked up)
# chain: MTTGKPNILIIMVDQLNGKLFPDGPADFLHAPNLKALAKRSARFHNNYTSSPLCAPARASFMAGQLPSRTRVYDNAAEYQSSIPTYAHHLRRAGYYTALSGKMHFVGPDQLHGFEERLTTDIYPADFGWTPDYRKPGERIDWWYHNLGSVTGAGVAEITNQMEYDDEVAFLANQKLYQLSRENDDESRRPWCLTVSFTHPHDPYVARRKFWDLYEDCEHLTPEVGAIPLDEQDPHSQRIMLSCDYQNFDVTEENVRRSRRAYFANISYLDEKVGELIDTLTRTRMLDDTLILFCSDHGDMLGERGLWFKMNFFEGSARVPLMIAGPGIAPGLHLTPTSNLDVTPTLADLAGISLEEVRPWTDGVSLVPMVNGVERTEPVLMEYAAEASYAPLVAIREGKWKYVYCALDPEQLFDLEADPLELTNLAENPRGPVDQATLTAFRDMRAAHWDMEAFDAAVRESQARRWVVYEALRNGAYYPWDHQPLQKAS
# notes: Choline sulfatase (BetC) of S. meliloti 1021 with Glu490 replaced by a stop codon, so that the last 23 residues (490-512) are missing; Predominantly a dimer (78%); source: E. coli BL21(DE3) expressing MtbFGE, purified (Q-Sepharose, Strep-Tactin, Superdex 200)
# B3: SmCS Δ12 (truncated mutant lacking 12 C-terminal amino acids) (domain or fragment, Sinorhizobium meliloti 1021, UniProt O69787 1-500, looked up)
# chain: MTTGKPNILIIMVDQLNGKLFPDGPADFLHAPNLKALAKRSARFHNNYTSSPLCAPARASFMAGQLPSRTRVYDNAAEYQSSIPTYAHHLRRAGYYTALSGKMHFVGPDQLHGFEERLTTDIYPADFGWTPDYRKPGERIDWWYHNLGSVTGAGVAEITNQMEYDDEVAFLANQKLYQLSRENDDESRRPWCLTVSFTHPHDPYVARRKFWDLYEDCEHLTPEVGAIPLDEQDPHSQRIMLSCDYQNFDVTEENVRRSRRAYFANISYLDEKVGELIDTLTRTRMLDDTLILFCSDHGDMLGERGLWFKMNFFEGSARVPLMIAGPGIAPGLHLTPTSNLDVTPTLADLAGISLEEVRPWTDGVSLVPMVNGVERTEPVLMEYAAEASYAPLVAIREGKWKYVYCALDPEQLFDLEADPLELTNLAENPRGPVDQATLTAFRDMRAAHWDMEAFDAAVRESQARRWVVYEALRNGAYYPWDHQPLQKASERYMRNHMNLD
# notes: Choline sulfatase (BetC) of S. meliloti 1021 with Thr501 replaced by a stop codon, so that the last 12 residues (501-512) are missing; Predominantly a tetramer (87%), with some dimer (11%) and monomer (2%); Made from the pASK-IBA5plusSmCS WT plasmid by QuikChange; source: E. coli BL21(DE3) expressing MtbFGE, purified (Q-Sepharose, Strep-Tactin, Superdex 200)
# Target: the molecule itself
# Assay: SEC-MALS; 100 uL of 2 mg/mL protein on Superdex 200 10/300 HR in 100 mM Tris-HCl pH 8.0, 150 mM NaCl, 0.5 mL/min; multi-angle light scattering and differential refractive index detectors
row,Protein,stoichiometry N
1,B1,4
2,B2,2
3,B3,4
